# Assay results taken from the nanobody polyreactivity screen of Harvey et al. (2022).
# Experiment: yeast display, Sf9 membrane polyspecificity reagent, FACS + sequencing; frameworks hold sequencing errors
# Method in brief: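 Using colony PCR, genes from sorted yeast display clones were amplified, then sequenced on MiSeq at 2 × 250 and filtered by CDR length. The clones had been stained with 10% biotinylated, detergent-solubilized Sf9 membrane reagent for 1 hour at 4 °C and sorted by FACS into low and high (top ~1%) gates on anti-HA and streptavidin fluorescence. Polyreactivity labels come from the gate of origin.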
row,Sequence,polyreactivity (PSR sort gate)
1,QVQLVESGGGLVQAGGSLRLSCADSGITFYRYAMGWYRQAPGKERELVATITSSGGRTYYADSVKGRFTISRDNAKNTVYLQLNSLKPEDTAVYYSAAGKFSYRVYYQFRGGNYWGQGTQVTVSS,high polyreactivity
2,QVQLVESGGGLVQAGGSLRLSCADSGLIFTAHDMGWYRQAPGKERELVADISKSGSSTYYADSVKGRFTISRDNAKNTVYLQMNSLKPEDTAVYYCNADYLTYFTTFDYWGQGTQVTVSS,low polyreactivity
3,QVQLVESGGGLVQAGGSLRLSCADSGLTFQRYAMGWYRQAPGKERELVAAISQRGSSTYYADSVKGRFTISRDNAKNTVYLQMNSLKPEDTAVYYCNARPYLFWLSIYDYWGQGTQVTVSS,low polyreactivity
4,QVQLVESGGGLVQAGGSLRLSCADSGNIFYKYDMGWYRQAPGKERELVATISSDANTKYADSVKGRFTISRDNAKNTVYLHMNSLKPEDTAVYYCNVKDPVVRGALRDPTEYDSWGQGTQVTVSS,low polyreactivity
5,QVQLVESGGGLVQAGGSLRLSCADSGNTFYANAMGWYRQAPGKEREFVASITRSGGSTYYADSVKGRFTISRDNAKNTVYLQMNSLKPEVTAVYYCAADSWFKYDYWGQGTQVTVSS,low polyreactivity
6,QVQLVESGGGLVQAGGSLRLSCADSGRIFADNAMGWYRHAPGKERELVAAITWSGGITFYADSVKGRFTISRDNAKKTVYLQMNSLKPEDTAVYYCATYGHRDTPYNYWGQGTQVTVSS,low polyreactivity
7,QVQLVESGGGLVQAGGSLRLSCADSGRIFAWYAMGWYRQAPGKERELVAVITSSDGSTHYADSVKGRFTISRDNAKNTVYLQMNSLKPEDTAVYYCNADSQRPRRRSNYWGQGTQVTVSS,low polyreactivity
8,QVQLVESGGGLVQAGGSLRLSCADSGRIFPQYTMGWYRQAPGKERELVAGISYGGVSTYYADSVKGRFTISRDNAKNTVYLHMNSLKPEDTAVYYCARPYGYRGYLRYYWGQGTQVTVSS,high polyreactivity
9,QVQLVESGGGLVQAGGSLRLSCADSGRIFRSNAMGWYRQAPGKERELVATITSSGGRTYYADSVKGRFTISRDNAKNSVYLQMNRLKPEVSAVYYCNAQQRTRGQKAQWVRDEYWGQGTQVTLSS,low polyreactivity
10,QVQLVESGGGLVQAGGSLRLSCADSGRIFRYYAMGWYRQAPGKERELVAAISGSGGSTYYADSVKGRFTISRDNSKNTVYLHMNSLKPEDTSVYYCAAAEYLYTLPYGYWGQGTQVTVSS,low polyreactivity
11,QVQLVESGGGLVQAGGSLRLSCADSGRIFSPNAMGWYRQAPGKETELVASISSAGSTNYADSVKGRFTISRDNAKNTVYLQMNSLKPEDTAFYYCAADYYGYWLSVHAWGAVTFDYWGQGTQVTVSS,low polyreactivity
12,QVQLVESGGGLVQAGGSLRLSCADSGRIFVHNAMGCYRQAPGKERELVAAISWRATRTYYADSVKGRFTISRDNAKNTVYLQMNSLKPEDTAVYYWAAVTPAYSTSSSSYDYWGQGTQVTVSS,high polyreactivity
13,QVQLVESGGGLVQAGGSLRLSCADSGRIFVRNAMGWYRPAPGKERELVADSTNGGSTNYADSVKGRFTISRDNAKNTVYLQRNSQKPEDTAVYYCAADTLGVYDGDYWGQGTQVTVSS,low polyreactivity
14,QVQLVESGGGLVQAGGSLRLSCADSGRIFVYYAMGWYRQAPGKERELVASISYSGASTYYADSVKGRFTISRDNAKNTVYLQMNSLKPEDTAVYYCARDVWNYWDGVFQYYSYDFDYWGQGTQVTVSS,low polyreactivity
15,QVQLVESGGGLVQAGGSLRLSCADSGRIFWANAMGWYRQAPGKERELVAAITWRGTSTYYADSVKGRFTISRDNAKNTVYLQMNSLKPEDTAVYYCAKVPYLKYGYDYWGQGTQVTVSS,high polyreactivity
16,QVQLVESGGGLVQAGGSLRLSCADSGRIYYSNAMGWSRQAPGKEREWVAAISRSGVRTYYADSVKGRYSISRDNAKNTVYLQKNSLKPEDTADYYCAAVIYGTTPQDEYDYWGQGTQVTVSS,low polyreactivity

row,Sequence,polyreactivity (PSR sort gate)
1,QVQLVESGGGLVQAGGSLRLSCADSGRTFEPYTMGWYRQAPGKERELVAAISWRGGSTYADSVKGRFTISRDNAKNTVYLQMNSLKPEDTAVYYCAAEPYWHLDSQYFGREYDYWGQGTQVTVSS,low polyreactivity
2,QVQLVESGGGLVQAGGSLRLSCADSGRTFFYYAMGWYRQAPGKERELVAAITTGGSTNYADSVKGRFTISRDNAKNTDYLQMKSLNPEDTEVYFCNADYDKGVRFNFTASFGEFDYWGQGTQVTVSS,low polyreactivity
3,QVQLVESGGGLVQAGGSLRLSCADSGRTFYGNAMGWYRQAPGKERELVAAISISGGSTYYADSVKGRFTISRDNAKNTVYIQMNSLKPEDTAVYYCNAQEYYYYPYVYDSDYWGQGTQVTVSS,low polyreactivity
4,QVQLVESGGGLVQAGGSLRLSCADSGRTFYINAMGWYRQAPGKERELVAAISSSGGITYYADSVKGRFTISRENAKNTVYLQMNSLKPEDTAVYYCNAPYVYSWHYDYWGQGTQVTVSS,low polyreactivity
5,QVQLVESGGGLVQAGGSLRLSCADSGRTFYVNAMGWYRQAPGKEREFVAAISRRGGSTYYADSVKGRFTISRDNAKNTVYLQMNSLKPEDTAVYYCIAAYSSRYDYWGQGTQVTVSS,high polyreactivity
6,QVQLVESGGGLVQAGGSLRLSCADSGSIFDFNAMGWYRQAPGKERELVAAITWSGGSTYYADSVKGRFTLSRDNAKNTVYLQMNSLKPEDTAVYYCAADSLYDDFYYWGQGTQVTVSS,low polyreactivity
7,QVQLVESGGGLVQAGGSLRLSCADSGSIFKYYVMGWYRQAPGKERELVADITSGGSTKYADSVKGRFTISRDNAKNTVYLQMNSLKPADTAVYYCAASWWYEIFDYWGQGTQVTVSS,low polyreactivity
8,QVQLVESGGGLVQAGGSLRLSCADSGSIFRYYFMGCYRQAPGKERELVSAISSGGRTYYADSVKGRFTISRDNAKNTVYLQMNSLNPEDTAVYYCNDQGLFYCEMDYWGQGTQVTVSS,high polyreactivity
9,QVQLVESGGGLVQAGGSLRLSCADSGSIFWYYAMGWSRQAPGKETELVADITSTGGSTYYADSVKGRFTISRDYAKNTVYFQMNSLKPEVSAVYYCAAEACYHWYYSLGYWGQGTQVTVSS,high polyreactivity
10,QVQLVESGGGLVQAGGSLRLSCADSGSIFYTYAMGWYRQAPGKEREFVAAITQTGGTTYNADSVKGRFTISRDNAKNTVYFQMNSLKQEDTAVYYCAARYRAYKLYGRHYYWGQGTQVTVSS,high polyreactivity
11,QVQLVESGGGLVQAGGSLRLSCADSGSILTRNAMGWYRQAPGKERELVAAISYSGVRTYYADSVKGRFTISRDNAKNNVYLQMNSLKQEDTAVYYCNAVISSRYDYWGQGTQVTVSS,high polyreactivity
12,QVQLVESGGGLVQAGGSLRLSCADSGSISYSYAMGWYRQAPGKDRELVAAISWRGVSTYYADSVKGRFTISRDNAKNTVYLQMNSLKPEDTAVYYCNAVHHYPEHIGGGYWGQGTLVTVSS,low polyreactivity
13,QVQLVESGGGLVQAGGSLRLSCADSGSTFNSNVMGWYRQAPGKERELVAAISRSGGNTYYADSVKGRFTISRDNAKNTVYLQMNSLKPEDTAVYYCNKDGRYPYDYWGQGTQVTVSS,high polyreactivity
14,QVQLVESGGGLVQAGGSLRLSCADSGSTFYYYTKGWYRQAPGKERELVAAISFSGGSTYYADSVKGRFTISLYNAKNTVYLQMNSLKPEDTAVYDCAAAQRVYKSWGYYWGQGSQVTVSS,low polyreactivity
15,QVQLVESGGGLVQAGGSLRLSCADSGYTFGRNAMGWYRQAPGKERELVATISQRGGSTYYADSVKGRFTISLDNAKNTVYLQLNSLKPEDTAVYYCAAGPIYRYRRYYYWGQGTQVTVSS,high polyreactivity
16,QVQLVESGGGLVQAGGSLRLSCADSRSIITNNAMGWYRQAPGKERELVAAISGSGGSTYYADSVKGRFTISRDNAKNTVYLQMNSLKPEDTAVYYCAANKSSRRMNYWGLGTQVTVSS,high polyreactivity
